The nature of this data set: label from the status in PepcDB records.
For the sequence “MDVLPLLLLVAGSAAVAGAARRTPVPAPLLLVAAGLIASYIPGVPEYTLDPEVVLPLVLPPLLYTAASDSSYLDLRAQLRPVALLSIGYVLFATLVVGWAAYLLVPGLPLPAALVLGAVVAPPDAVAATAVARRVGLPSRITTILQGESLVNDATAITAYKVALAAAVGEGATWAHGVGEFLLAAVGGVAVGLLLMVPLHWLRTHLKEALLQNTLSLLIPFVAYGLAEWAHASGVLAVVVVALYLGHRNYEVDFATRLQEEAVWKMVAFVLESAVFALIGLQLQVVLKGLGEYRGVDAAWYAVAVFLVVVLARFVWVYPATFLPRLLSARIREREENPTWKAPFIIGWAGMRGVVSLAIAFSIPLTVHGQGKGPFPGRNLILFLTFTTVIGTLVVQGLTLPPLIRLLRLPGRDAQAETLAEANAQAQASRVAELRLNDLLDDERNALPPPLADRLRDVLERRRNAVWERLGAVNPVTGESVDDTYRRLSREMIAAERSVFVRLRNGRYIDDEMLRTLLRRLDLEEAAAFREAT”, the protein production entry is on record as “failed”. With “MDVPSSWDALRKQARKIEAQLDEQMHSYRRLVSTKALSKSDGNESDLEAGIDLLLRQLQQVNAQMQAWVSSGGSEMVSHTLTRHQEILQDLTQEFYRHRSSLRAKQEHASLLEDFREFDRTRLDLEDGYGSEQALIKEHMGINRNTAQMDGVISQAQATLGTLVFQRSTFGGINSKLSNVASRLPTVNTILAAIKRKKSMDTIILSLVAAVCTFLIFIYWITK”, the protein production result was “failed”. As for “MDVQFAILAFTSLFSILNPFGVIPTYLVLTSQYSKVEKIKIIRKSMLAAFIILMMFALLGNQIIGFFGISIPAIKITGGVLLFLIALDMIQGNTSKVEKSPKLESHLKSHAEEIEEMDEIAIVPLTVPLLTGPGSISAVIAMMAQTSDFDGKISVIIAISLCIIISYFVLKFSKDLEKMLGKIGFKVLTKMMGLVLTAISIQMALDGILMVFG”, the entry is “failed”.

Turning to “MDWAQLLPSMKTRTGVATSPPPARSFYCHPSARKNPLHLHLITDAVARNILETLFRTWMVPAVVVSFYDAEELKPLVSWIPNNHYSGLYGLMKLVLPSILPPSLARVIVLDTDVTFSSDIVELWALFDHFSDKQVVGLVENQSDWYLGNLWKNHRPWPALGRGFNTGVILLWLDRLQQTGWEQMWKVTAKRELLTLMATSLADQDIFNAVIKEHPHLVHPLPCVWNVQLSDHTRAERCYLEAADLKVIHWNSPKKLRVKNKHAEFFRNLHLTFLGYDGKLLRRELFGCPNQFPPGAEQLQQALTQLDEEEPCFEFRQQQLTVHRVHITFLPHQPPPPQPHDVTLVAQLSMDRLQMLEALCRHWPGPMSLALYLTDEEAQQFLHFVETSPVLSMRKDVAYHVVYRDGPLYPVNQLRNVALAQALTPYVFLSDIDFLPAYSLYDYLRASIEQLELDSRRKTALVVPAFETLHYRFSFPNSKAELLTLLDAGSLHTFRYHEWPQGHSSTDYSRWREAQAPYSVQWSADYEPYVVVPRDCPRYDPRFVGFGWNKVAHIIELDAQEYEFLVLPEAFSIHLPHAPSLDISRFRSSPTYRNCLQALKEEFHQDLSRRYGSAALKYLTALQQARSRA”, the protein production entry is reported as “failed”.

“MDWIESVKSYIKVVEEGSFNAAAYQLNTSGSAISKRINWLEERVGVQLLTRTTRSVHQTEAGLLFYQRARLQLDQWQHLVDETRAINQTPAGLLKIGATLAVGSKFIIKYLDEFLATYPKIKVQLITTLPGQVPEHNVDVFISRELEQLNTFSYKATHLFEHHSGFFASKDYLDKYGTPNNINELKAHNMLIWGERPIKEIKLTNNKRVTLRGNFATTNPEALFHAAKRGMGILLTSQQMVIDDLQSGALVPILPEITTDHTRVNAYYPTLDYEHTRTQLFIKYLKTKLS”: the protein production entry is “failed”. With “MDWITLLRSLQSDFIKRLSSGCLLHCEIEGQYSELTVISGERLKTLRDFCWLMAEKYKRVSPVRDVFISYLKGKLGEEVVKERLADLITEVDYEKRLGGDGKIDFTLTANPAIGIEVKSRHGNIDRVRWSVSAEEVEKNAVVVCIFIKEDVNEAQSSYHLLLAGFLPTQMIKLKTGNISFGIEQLLYGGGLWGYLEQLQASANYHQFQQSPPIYQYKPQPELLSKINQTQSIKPALFTGIKNILPYRQQEAINIDYIKIGDECFAQGEYTASIKNYSQALQASSDNCELYYKRGLSYYQLGDYEAAIADYSQAININLHDAKSYHKRGLALSQLAAYEAAIDDYNQAIRINPHAASIYKNRAEARSHLGDNQGAIEDYTQAIKINPQYADTYKNRGISRYLLATQPGFTQAIKINPNDANAYKNRGNARADIGDYLGAIEDYNQAIQINPKAADAYYNRGNARYDLGDEEGAIADYTQAIQINPSYADAYYNRGNVRAGIKDKQGAIADFQKAADIYRKEGKLAELKDTTERVVELEIEESIDILNF” the entry was “failed”. As to “MDWKVFLLRVAVALVLGALIGAERQLRQRLTGLRTNALVSTGACLFVLMTQGVPGLAGDASRIAAYVVSGIGFLGGGVIMRDGLNVRGLNTAATLWCTAAIGVLCSMGLLLEATLGSLVVLCANILLRDIAQRLNRQDVLPASEAEQRYEVQIVCRAEDEIQVRSLMLHSLGSSDLRLQSLHSEDLDNPAKLEVRAELLGTPEAPAQLERLVSRVSLEKGVSSVRWQVFELAAD”, the protein production result is given as “failed”. With “MDWTTLFFSFRGRINRAKYWLVGLIYVAAWMVFTVLAITWLGGVDPDQLFRFAGGAILIWLIAIALGLAGTWSGLATGVKRLHDRDKSGWWILLFWFGPSLLGGSNQTMEDSPVSLVLALIGLGIAIWGFVELGCLRGTPGPNQYGPDPLEPQGTLT” the entry was “failed”; with “MDYDQQPIMYDEVELLIQAVDQQPHPLLRLRDKAIIQLGLQGGFRRSELANLKVHYLSFMRDKLKVRLPFSKSNQQGLREWKSLPDSEPFAAYHAVKSWLNESQITDGHLFRSISRDGKTLRPYHVNDNSKPKSTFSRNSGFLNGDDIYRIIKQYCLKAGLPAQYYGAHSLRSGCVTQLHENNKDILYIMARTGHTDPRSLRHYLKPKEDLEHHHHHH”, “failed”; with “MDYFRLAEKFLREMHAKYMKRVSRPGNTPRPWFDFSEERLLSRLFEEMDELREAVEKEDWENLRDELLDVANFCMYLWGKLSVKNIYDKGEEQ”, “not failed”. In the case of “MDYKKTNAPSNTVTRDMMDLCADTGNIYETVAIIGKRANQISVEMKNDLSKKLQEFASYNDNLEEVFENREQIEISRYYEKLPKPTLIAAQEYEEGKVYFRNPAKEKEKLQ”, the protein production entry is recorded as “not failed”.

For the sequence “MDYKLIITLFTFCVAAFSGMKAAEAASFSVVADGLNNARGLSFGLDGALYVTEAGTGGNGACIPSVTGQGGSLCYGTSSTVLKIENGVTSPVLTGLPSIALADGTGAGGARDIQFDTTGKPYILMGYGANPTFRNNLGNIDLGKIIAPDFQTNSWTSIADLANYELVNNPDGGDINSNPLGFFIDGNNLIAVDAGANNLLSVQTNGTNLQTLSVFPQEILTNPVFPPSGTPSTEPGQVPTPTAPPPPQLPIQVVPSSVVRGPDGAYYVSQFTGFPFPEGGAKIYRVGTDGETTIYADGFTQLTDLEFDSAGNLYALQYANQSAWKGNFDGSLIKIAADGTRTTILSGNGLESPNALAIAPNGEIYITNRSDRPGLGQIIRVENSQAVPEPNSAFSVFLLGAFGVAWLRKSTSRVCLNQKP”, the protein production result is “failed”. Consider “MDYKSKTANDKEISIYYFSATGNSLKLSQDIAAAFGGAGLFRMTPSAGITASDSRIVGFIFPVYMGGLPGIVRRFLESYPFRKGVYYFSIGTYYTYKGCAVSVVDKIMSGKGVRLDYGYNLPTVGNCLKEYEVSSVRRTKILERAELYTSRIIDDLKKGKRKKPFPYCRLSDLLHKGLFNAFFSRSHLNFSLENGCMGCGVCERVCPVNNITLKNGVPRWGTGCEACHACVHWCPRNVIQIGKSKGRLQYHHPAVKRTMLYRVELEHHHHHH”, for which the protein production entry is “not failed”.

Turning to “MDYLSQEEDLQFFDANEEMMALNPSGFGFDVWNDSPGSVVERRRKFLEWMGVEEEGRVETKDSVSGSSVESCFDGGEENSVEAEERSGECSSSSSEVSLSGSSVEVSEELSLRVDRNVGGCDVTRRQSSSMASCSSSRYCQVKETEKQRNIAGLVTSFKKGWLSRLRSMGCTADTNIESGGRMRASSGYGDVISRVKVKHCKKQAKELSALYQSQDIKAHDGAILAMKFSNDGKFLASSGEDGIVRVWKVVEDKKSRLRRDCLNEIDPSCMYFEVNDLSQLKPVLVNEEKPKKTTESFRKTSDSACVVFPPKVFRIMEKPLYEFRGHTGEVLDISWSKDNYLLSASMDKTVRLWKVGSNDCLGVFAHNSYVTSVQFNPVNENYFMSGSIDGKVRIWNISGCSVVDWADLKDIISAVCYRPDGQGGIIGSLNGSCRFFNMSGEFLELDSQIHLHNKKKSSNKRITGFQFLPQEPTKVLVVSADSKVRILQGNNVVRKYKGVCKTRSLTSASLTSDGKHIVSACEDSNVYIWSNDEESETKKIRSFERFSANASVAATWCGFSDHNTTLPFSSPSCLSHNEGFVPGSISKGSATWPEENLPANPLSTSAMNASHYKFLKSSYQRASSSLSWGMVIVTGGWDGQIRTFQNYGLPVTT”, the protein production entry is reported as “failed”. As for “MDYTYTVMTQEEAEEIAYNWHYEGEYSFYDIEADEEDLAEFLHDESRGDHIFSVKEHGTLIGYFTVCKINDGTVDIGLGMKPNITGNGFGLQFINAILAFSKEKYGCKYITLSVATFNKRAIKVYKRAGFEAVGTFIQKTNGSCFEFLKMNYICKND”, the entry is “failed”. For the sequence “MEAEKKKLSIPPKGIRAIIEAIRLGEIIKPSQYAKREAFKKHDVEEAWLNRVLTMIFYDIMKKQGLIDKVIKEIVGVTPLILDPWLRAALRVAVDIALFHDPSSQTIKNLRWKASDFISSRTHPYVGMYFWDLLDKIFEYKPNPKNELEELEWKYLAPSWLIERVKGILGDETEDFFRSVNKRHEWISIRVNTLKANVEEVIGELEEDGVEVVRSERVPTILKIKGPYNFDTSSAFNEGKIIVQEEASAVASIVLDPKPGETVVDLAAAPGGKTTHLAELMKNKGKIYAFDVDKMRMKRLKDFVKRMGIKIVKPLVKDARKAPEIIGEEVADKVLLDAPCTSSGTIGKNPELRWRLREDKINEMSQLQRELLESAARLVKPGGRLLYTTCSIFKEENEKNIRWFLNVHPEFKLVPLKSPYDPGFLEGTMRAWPHRHSTIGFFYALLEKSK”, the protein production entry is reported as “not failed”. As for “MEAGFVSVGDVTFRDLEDEAIVELVRKGNTDALEYLIHKYKNFVRAKSRSYFLVGADREDIVQEGMIGLFKAIRDYKEDKLSSFKAFAELCITRQIITAIKTATRQKHIPLNSYVSLDKPIYDEESDRTLLDVISEAKVTDPEEMIISQEEYTDIESKISELLSDLERKVLSLYLDGRSYQEISEQLNRHVKSIDNALQRVKRKLERYMEMRESTTLNS”, the entry is “failed”; as for “MEAKKSNKIREIVKLQQLLKKWRKQAIASKAANNNNEDNNSSGGGSKSIKFLKRTLSFTDVTAVPKGYLAVSVGLEKKRYTIPTEYLSHQAFYVLLREAEEEFGFQQAGVLRIPCEVSVFESILKIMEEKNEGYLVTPITAKQECKFNAAADDKTSYQHPSDCPKTPSHQPHNSPMCR”, “not failed”; as for “MEAMTLPPQDLPPGQALLATPLGTANAPQAARVHTYPLRFTGQASEYFRVWIVNLALTVITLGLYTPWARIRTRQYLYGHTWLDDQNFEYTASPFALLRGYLIVVAFFGLYTAAQQLQFTGWEWVTGALGLLFAVAYPWLVRQSMRFQARSTVHRGLRFRFTGSLGDAYVSYGVANIAAVFSGSLALPWAWFMQRRYQADGLAYGTARGHFRGSLGPFYLIGLAGAGLTVLGIGLLAGLAIGAATIAGVLGDLNLEQLDTDLLTSAVVVAFVLGYLALAVLYGIAWQYVRAATMHYVLNNFELGGVVRTQATFSPWRLVWINLANTLARIFSLGLLTPWTVIRTNRYLLGHVQVRAIVSLDDFSAAQTEDESAVGEAATELLDINIGF”, “failed”. As for “MEAPTVLDVGCGDGARTLANLPPRSVGLDFSRAGLDLAAETVPDSRLVQGDMGSLPVTTDSVDAITAYHAVFHVQRDQHPEVYREFARVLRPGGTVLMTLPSGQFETVRRGWMGGSMFFSAPGRRATLDQLADAGFTETETVTATDPLGSDSEFVFATLADALEHHHHHH”, the entry is “failed”.
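Note: failed if final PepcDB status was selected cloned or expressed and not failed if soluble or beyond.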
